# Tests used:
# HLA-A*01:01 = test: IEDB peptide-MHC binding, purified MHC/competitive/fluorescence; ≥ and ≤ were set here for values at or beyond the usual limits of such assays; conditions: source organism: Homo sapiens
# HLA-A*02:01 [1] = test: as above; conditions: source organism: Homo sapiens
# HLA-A*03:01 [2] = test: as above; conditions: source organism: Homo sapiens
# HLA-A*11:01 = test: as above; conditions: source organism: Homo sapiens
# HLA-A*24:02 = test: as above; conditions: source organism: Homo sapiens
# HLA-A*25:01 = test: as above; conditions: source organism: Homo sapiens
# HLA-A*29:02 [3] = test: as above; conditions: source organism: Homo sapiens
# HLA-A*31:01 = test: as above; conditions: source organism: Homo sapiens
# HLA-A*68:02 = test: as above; conditions: source organism: Homo sapiens
# HLA-B*07:02 = test: as above; conditions: source organism: Homo sapiens
# HLA-B*08:01 = test: as above; conditions: source organism: Homo sapiens
# HLA-B*14:02 = test: as above; conditions: source organism: Homo sapiens
# HLA-B*18:01 [4] = test: as above; conditions: source organism: Homo sapiens
# HLA-B*35:01 = test: as above; conditions: source organism: Homo sapiens
# HLA-B*37:01 = test: as above; conditions: source organism: Homo sapiens
# HLA-B*40:02 = test: as above; conditions: source organism: Homo sapiens
# HLA-B*44:03 = test: as above; conditions: source organism: Homo sapiens
# HLA-B*51:01 [5] = test: as above; conditions: source organism: Homo sapiens
# HLA-B*53:01 = test: as above; conditions: source organism: Homo sapiens
# HLA-B*58:01 = test: as above; conditions: source organism: Homo sapiens
# HLA-A*02:01 [6] = test: IEDB peptide-MHC binding, purified MHC/direct/fluorescence; filed as Kd, often an IC50 or EC50 that approximates it; ≥ and ≤ were set here for values at or beyond the usual limits of such assays; conditions: source organism: Escherichia coli O157:H7 str. EC869
# HLA-A*02:03 = test: as above; conditions: source organism: Escherichia coli O157:H7 str. EC869
# HLA-A*02:06 = test: as above; conditions: source organism: Escherichia coli O157:H7 str. EC869
# HLA-A*02:11 = test: as above; conditions: source organism: Escherichia coli O157:H7 str. EC869
# HLA-A*02:12 = test: as above; conditions: source organism: Escherichia coli O157:H7 str. EC869
# HLA-A*02:16 = test: as above; conditions: source organism: Escherichia coli O157:H7 str. EC869
# HLA-A*02:19 = test: as above; conditions: source organism: Escherichia coli O157:H7 str. EC869
# HLA-A*03:01 [7] = test: as above; conditions: source organism: Escherichia coli O157:H7 str. EC869
# HLA-A*24:03 = test: as above; conditions: source organism: Escherichia coli O157:H7 str. EC869
# HLA-A*26:01 = test: as above; conditions: source organism: Escherichia coli O157:H7 str. EC869
# HLA-A*29:02 [8] = test: as above; conditions: source organism: Escherichia coli O157:H7 str. EC869
# HLA-B*15:17 = test: as above; conditions: source organism: Escherichia coli O157:H7 str. EC869
# HLA-B*18:01 [9] = test: as above; conditions: source organism: Escherichia coli O157:H7 str. EC869
# HLA-B*27:03 = test: as above; conditions: source organism: Escherichia coli O157:H7 str. EC869
# HLA-B*39:01 = test: as above; conditions: source organism: Escherichia coli O157:H7 str. EC869
# HLA-B*46:01 = test: as above; conditions: source organism: Escherichia coli O157:H7 str. EC869
# HLA-B*51:01 [10] = test: as above; conditions: source organism: Escherichia coli O157:H7 str. EC869
# HLA-B*57:01 = test: as above; conditions: source organism: Escherichia coli O157:H7 str. EC869
IC50 (HLA-A*01:01),IC50 (HLA-A*02:01 [1]),IC50 (HLA-A*03:01 [2]),IC50 (HLA-A*11:01),IC50 (HLA-A*24:02),IC50 (HLA-A*25:01),IC50 (HLA-A*29:02 [3]),IC50 (HLA-A*31:01),IC50 (HLA-A*68:02),IC50 (HLA-B*07:02),IC50 (HLA-B*08:01),IC50 (HLA-B*14:02),IC50 (HLA-B*18:01 [4]),IC50 (HLA-B*35:01),IC50 (HLA-B*37:01),IC50 (HLA-B*40:02),IC50 (HLA-B*44:03),IC50 (HLA-B*51:01 [5]),IC50 (HLA-B*53:01),IC50 (HLA-B*58:01),Sequence,also measured
≥ 20 µM,≥ 20 µM,1.02 µM,0.0665 µM,≥ 20 µM,≥ 20 µM,1.46 µM,1.05 µM,≥ 20 µM,≥ 20 µM,≥ 20 µM,≥ 20 µM,≥ 20 µM,≥ 20 µM,≥ 20 µM,4.59 µM,≥ 20 µM,≥ 20 µM,≥ 20 µM,≥ 20 µM,GSSDFQVHFLK,
≥ 20 µM,0.0193 µM,≥ 20 µM,≥ 20 µM,≥ 20 µM,≥ 20 µM,≥ 20 µM,≥ 20 µM,0.0243 µM,≥ 20 µM,≥ 20 µM,≥ 20 µM,≥ 20 µM,≥ 20 µM,0.907 µM,0.745 µM,≥ 20 µM,≥ 20 µM,≥ 20 µM,≥ 20 µM,KVADVDLAVPV,
,,,,,,,,,,,,,,,,,,,,SQFNHWFGE,Kd (HLA-A*02:01 [6]): ≥ 20 µM; Kd (HLA-A*02:03): ≥ 20 µM; Kd (HLA-A*02:06): 0.086 µM; Kd (HLA-A*02:11): ≥ 20 µM; Kd (HLA-A*02:12): ≥ 20 µM; Kd (HLA-A*02:16): ≥ 20 µM; Kd (HLA-A*02:19): ≥ 20 µM; Kd (HLA-A*03:01 [7]): ≥ 20 µM; Kd (HLA-A*24:03): ≥ 20 µM; Kd (HLA-A*26:01): ≥ 20 µM; Kd (HLA-A*29:02 [8]): ≥ 20 µM; Kd (HLA-B*15:17): ≥ 20 µM; Kd (HLA-B*18:01 [9]): ≥ 20 µM; Kd (HLA-B*27:03): ≥ 20 µM; Kd (HLA-B*39:01): ≥ 20 µM; Kd (HLA-B*46:01): ≥ 20 µM; Kd (HLA-B*51:01 [10]): ≥ 20 µM; Kd (HLA-B*57:01): ≥ 20 µM

# Reference: the Immune Epitope Database (IEDB)
